Legend:
[1] = Gel filtration chromatography (Superdex 75 HR 10/30), oligomeric structure; type: physicochemical; details: Superdex 75, Buffer A
Method: The peptides were dissolved in DMSO for 30 minutes and then ten fold diluted in buffer A at a final protein concentration of 5-10 μM. A 200 μl aliquot was loaded onto a Superdex 75HR 10/30 column and eluted at a rate of 0.4 ml/min.
Gel filtration analysis was performed with a Pharmacia Superdex 75 HR 10/30 column using a Waters 490 multiple wavelength UV absorbance detector and Hewlett Packard 3250 fluorescence detector. Data were collected with a Waters Maxima chromatography data system. The running buffer used was 50 mM Tris, 0.1 M NaCl, pH 7.4 (Buffer A) in the presence of 10% or 2% DMSO. The column was calibrated with the following molecular weight standards: thyroglobulin, bovine serum albumin, ovalbumin, soybean trypsin inhibitor, ubiquitin, aprotinin, and insulin β-chain. The peptides were detected by UV absorbance at 280 nm and by fluorescence at 482 and 520 nm for IAEDANS and FM respectively.

[2] = Denaturation (unfolding) of Aβ in DMSO monitored by tyrosine or AEDANS fluorescence; type: physicochemical
Method: FIG. 3 is a graph illustrating the unfolding of Aβ measured by tyrosine fluorescence and 1,5-IAEDANS fluorescence. […] The protein concentration was 5-10 μM of Aβ.
For refolding experiments, samples were incubated in 100% DMSO for 1 hour at room temperature, and refolding was initiated by ten or fifty times dilution of the solvent in Tris buffered solution. The concentration of peptide ranged between 3 and 10 μM.
Absorption measurements were measured with a Perkin Elmer Lambda 3B UV-Vis spectrophotometer. Fluorescence spectra (excitation band pass 4 nm; emission band pass 8 nm) were measured either on an Aminco SLM 48000 or a SPEX Fluorolog F112A spectrofluorometer. Intrinsic tyrosine fluorescence was measured from 285 to 400 nm upon excitation at 275 nm. […] The lifetime measurements for FM were acquired using the 488 nm line of argon ion laser for excitation using a multiharmonic frequency-domain spectrofluorometer (Aminco 48000S).

Substance	elution position on gel filtration [1]	unfolding curve compared with AβC25-AEDANS [2]
14C-labeled Aβ 1-40: Aβ synthesized by incorporation of Fmoc-14C-Ala at position 2, 36 mCi/mmol	eluted at the position expected for a dimer	
AβC7FM: Aβ with cys in position 7 and labeled with FM		identical unfolding curves
AβC4FM: Aβ with cys in position 4 and labeled with FM		identical unfolding curves

— patent publication US6770448B2, “Fluorescent amyloid Aβ peptides and uses thereof” (The Regents of the University of California, priority 1997, dated 2004)
